Publication PMC6353898 (Scientific Reports, 2019)
Ends that are not written are not given here. * marks the point of attachment. FITC = O=C1OC2(c3ccc(O)cc3Oc3cc(O)ccc32)c2ccc(NC(=S)*)cc21; Ahx = NCCCCCC(=O)O

Molecular target: T1, EGFR on A431 and MDA MB 468 cells (human (endogenous in A431 and MDA MB …, UniProt P00533 25-1210))
T1 construct: also called Epidermal growth factor receptor; EGFR overexpressing cells; source: endogenous, overexpressed on A431 and MDA MB 468 cells
Assay: flow cytometry on cells; A431, MDA MB 468 and HEK 293 cells; FITC labeled peptides 10 µM in HBSS, 37 °C, 15 minutes; washed, trypsinized; mean fluorescence intensity
Conditions: one partner purified

fold fluorescence against the other peptides: 1.5 fold
B1: FITC conjugated Pep11 (designed binder)
peptide: {FITC-Ahx}-WSGENGPGFYDYEA
notes: Pep11, FITC labelled; also called FITC-Pep11; source: synthetic peptide (solid phase, Fmoc chemistry, HPLC purified)
